Source: publication PMC5206653, “PDLIM5 links kidney anion exchanger 1 (kAE1) to ILK and is required for membrane targeting of kAE1” (Scientific Reports, 2017)

T1: tag-free PDZ domain of PDLIM5 (PDLIM5-PDZ), first 127 residues (human, UniProt Q96HC4 1-127)
T1 construct: cDNA amplified from human kidney cDNA; a degradation product of the full-length construct in pSUMO3; also called untagged PDLIM5-PDZ; source: E. coli BL21, purified (Ni-NTA, SUMO proteinase 2 digestion, size-exclusion chromatography); not shown: His6-SUMO3, N-terminal, cleaved
T1 sequence (looked up): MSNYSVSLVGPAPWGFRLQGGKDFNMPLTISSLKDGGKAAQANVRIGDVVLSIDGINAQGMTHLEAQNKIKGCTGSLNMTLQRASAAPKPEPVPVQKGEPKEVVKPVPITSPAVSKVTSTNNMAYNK


Target: T1, tag-free PDZ domain of PDLIM5 …
Assay: ELISA; 100 μl of 30 μM GST_AE1C-WT, -Δ11, -M909T or GST alone immobilised on a 96-well plate; incubated with 100 μl of 2 μg/ml GST_PDLIM5, tag-free PDLIM5-PDZ or GST_ILK; detection with anti-PDLIM5-nt or anti-ILK, HRP, ABTS
Details: both partners purified

Binder	binding result
LIFRNVELQCLDADDAKATFDEEEGRDEYDEVAMPV (domain or fragment, human, last 36 residues of anion exchanger 1 (AE1, SLC4A1), the cytosolic C-terminal tail; cloned into pGEX-4T-1; source: E. coli BL21, purified (glutathione sepharose beads); not shown: GST, N-terminal, kept) [GST-tagged AE1 C-terminal domain, wild type (GST_AE1C-WT)]	binds
LIFRNVELQCLDADDAKATFDEEEGRDEYDEVATPV (domain or fragment, human, UniProt P02730 876-911, looked up, last 36 residues of anion exchanger 1 (AE1, SLC4A1) with the dRTA-causing mutation M909T; cloned into pGEX-4T-1; C-terminus becomes A908TPV; source: E. coli BL21, purified (glutathione sepharose beads); not shown: GST, N-terminal, kept) [GST-tagged AE1 C-terminal domain with the missense mutation M909T (GST_AE1C-M909T)]	binds
